In assay [1] the target is human neonatal Fc receptor (FcRn) (human) (UniProt P55899). The experiment in a line: BLI; Octet; biotinylated human FcRn on streptavidin-coated biosensors, antibody soluble; equilibrium binding; PBSA pH 5.6; tips regenerated in PBSA pH 7.4. On the technique in general: BLI is a label-free optical method that tracks binding on a fibre tip over time.
Assay [2] deals with human Fcγ receptor I (FcγRI) (human) (UniProt P12314). Description: BLI; Octet; biotinylated human FcγRI on streptavidin-coated biosensors, antibody soluble; equilibrium binding; PBSA pH 7.4; tips regenerated in 0.1 M glycine pH 3.5.
Chain of human Fcγ receptor I (FcγRI) (human) (P12314 16-292): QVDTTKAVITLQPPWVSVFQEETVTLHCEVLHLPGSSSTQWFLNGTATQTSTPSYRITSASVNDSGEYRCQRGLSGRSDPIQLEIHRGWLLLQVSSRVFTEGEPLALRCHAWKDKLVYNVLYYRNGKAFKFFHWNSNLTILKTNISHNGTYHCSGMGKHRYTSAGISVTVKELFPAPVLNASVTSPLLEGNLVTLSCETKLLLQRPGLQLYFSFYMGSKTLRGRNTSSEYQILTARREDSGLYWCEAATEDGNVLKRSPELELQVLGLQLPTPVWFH

We go through two substances from publication PMC11697773.

The term Kd denotes the constant that tells how readily two partners part at equilibrium. For the substance “trastuzumab N297G + YTE + SEFL (aglycosylated variant) (antibody)”, in assay [1], the Kd was 20.4 nM.
In the case of F5111 antibody, N297A, the Kd in assay [2] is 105 nM; in assay [1], 132 nM.
